Test results as given in patent US20180037654A1 (ADURO BIOTECH HOLDINGS EUROPE B V, published 2018).

T1: Mou-Hum-CTLA-4 (mouse/human chimera)
T1 construct: Mouse residues on strand 1, 2, 5 and 6 and human residues on strand 3, 4, 7 and 8; transiently expressed on CHO-K1 cells; also called mouse-human variant; mouse-human exchange mutant
T1 chain: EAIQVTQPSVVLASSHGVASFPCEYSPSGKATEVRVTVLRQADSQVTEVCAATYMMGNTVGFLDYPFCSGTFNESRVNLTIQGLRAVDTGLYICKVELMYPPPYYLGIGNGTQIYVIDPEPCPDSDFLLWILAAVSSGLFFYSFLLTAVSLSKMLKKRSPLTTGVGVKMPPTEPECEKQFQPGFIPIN


Assays:
Mou-Hum-CTLA-4 = molecular target: T1, Mou-Hum-CTLA-4; assay: CELISA on CHO-K1 cells transiently transfected with Mou-Hum-CTLA-4, panel Mouse/Human
Procedure: The cDNAs encoding these constructs (SEQ ID NO: 41 and 43, respectively) were synthesized and subcloned into the pCI-Neo vector (GeneArt). […] To this end CHO-K1 cells were transiently transfected, using Lipofectamine 2000 (Invitrogen), with the pCI-Neo vectors expressing human CTLA-4 (hCTLA-4), mouse CTLA-4 (mCTLA-4) (SEQ ID NO: 45), Hum-Mou-CTLA-4, and Mou-Hum-CTLA-4 respectively. The transfected cells were cultured at 37° C., 5% CO₂ and 95% humidity in medium (DMEM-F12 (Gibco) with 5% New Born Calf serum (Biowest) and Pen/Strep (Gibco)) until confluent. Subsequently, cells were trypsinized and seeded in tissue culture plates and cultured at 37° C., 5% CO₂ and 95% humidity in culture medium until confluent. Then, culture medium was removed and cells were incubated for 1 hour at 37° C., 5% CO₂ and 95% humidity with hCTLA-4 antibodies. Next, cells were washed with PBS/0.05% Tween (PBST) and incubated for 1 hour at 37° C., 5% CO₂ and 95% humidity with 1:2,000 goat-anti-human IgG-HRP (Jackson Immunoresearch). After that, cells were washed 3 times with PBST and anti-CTLA-4 immunoreactivity was visualized with TMB Stabilized Chromagen (Invitrogen).

[1] = molecular target: T2, human CTLA-4 (Y166G and Y183G) expressed on CHO-K1.hCTLA-4 cells (human, UniProt P16410 36-223); assay: CELISA, blockade of biotinylated hCD86/Fc binding to CHO-K1.hCTLA-4 cells (Example 6)
Procedure: (§1) In short, CELISA for hCTLA-4 binding was performed on CHO-K1.hCTLA-4 cells. […] Once the cells were confluent culture medium was removed and cells were incubated for 1 hour with the hCTL4.27 antibodies and control antibodies (10 μg/ml and dilutions thereof) at 37° C., 5% CO₂ and 95% humidity. […] Cells were then washed with PBST followed by addition of Streptavidin-HRP conjugate on the cells, which was incubated for 1 hour at 37° C., 5% CO₂ and 95% humidity. […] Reactions were stopped with 0.5 M H₂SO₄ and absorbances were read at 450 and 610 nm. IC50 values represent the concentration at which half of the inhibition is observed.

[2] = molecular target: T2, human CTLA-4 (Y166G and Y183G) …; assay: CELISA on CHO-K1.hCTLA-4 cells (Example 6)
Procedure: as §1

[3] = molecular target: T2, human CTLA-4 (Y166G and Y183G) …; assay: CELISA, blockade of biotinylated hCD80/Fc binding to CHO-K1.hCTLA-4 cells
Procedure: CHO-K1.hCTLA-4 cells were seeded in tissue culture plates and incubated at 37° C., 5% CO₂ and 95% humidity in culture medium. Once the cells were confluent culture medium was removed and cells were incubated for 1 hour with the humanized hCTL4.27 antibody variants (10 μg/ml and dilutions thereof) at 37° C., 5% CO₂ and 95% humidity. […] Cells were then washed with PBST followed by addition of Streptavidin-HRP conjugate on the cells, which was incubated for 1 hour at 37° C., 5% CO₂ and 95% humidity. […] Reactions were stopped with 0.5 M H₂SO₄ and absorbances were read at 450 and 610 nm. […] IC50 values represent the concentration at which half of the inhibition is observed.
Target sequence in this assay (P16410 36-223 Y201G/Y218G limits assumed): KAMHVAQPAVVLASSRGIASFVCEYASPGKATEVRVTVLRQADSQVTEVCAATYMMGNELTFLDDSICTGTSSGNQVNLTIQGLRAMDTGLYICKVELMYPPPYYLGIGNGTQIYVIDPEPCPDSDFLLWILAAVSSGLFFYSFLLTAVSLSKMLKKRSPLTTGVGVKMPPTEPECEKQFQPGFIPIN

[4] = molecular target: T2, human CTLA-4 (Y166G and Y183G) …; assay: CELISA, blockade of biotinylated hCD80/Fc binding to CHO-K1.hCTLA-4 cells (Example 6)
Procedure: as §1

[5] = molecular target: T2, human CTLA-4 (Y166G and Y183G) …; assay: CELISA on CHO-K1.hCTLA-4 cells
Procedure: Binding of the humanized antibodies to hCTLA-4 was studied in CELISA format. CHO-K1.hCTLA-4 cells were seeded in culture medium (DMEM-F12 (Gibco) with 10% Fetal Bovine Serum (Hyclone) and Pen/Strep (Gibco)) in tissue culture plates and cultured at 37° C., 5% CO₂ and 95% humidity until they were confluent. Subsequently, culture medium was removed and cells were incubated for 1 hour at 37° C., 5% CO₂ and 95% humidity with purified hCTLA-4 antibodies (10 μg/ml and dilutions thereof). Next, cells were washed with PBS/0.05% Tween (PBST) and incubated for 1 hour at 37° C., 5% CO₂ and 95% humidity with goat-anti-human IgG-HRP (Southern Biotechnology) or goat-anti-mouse IgG-HRP (Southern Biotechnology). Subsequently, cells were washed 3 times with PBST and anti-hCTLA-4 immunoreactivity was visualized with TMB Stabilized Chromagen (Invitrogen). Reactions were stopped with 0.5 M H₂SO₄ and absorbances were read at 450 and 610 nm.
Target sequence in this assay (P16410 36-223 Y201G/Y218G limits assumed): as above

Row | EC50 (read off the curve) (Mou-Hum-CTLA-4) [pM] | IC50 [1] [pM] | EC50 [2] [pM] | IC50 [3] [pM] | IC50 [4] [pM] | EC50 [5] [pM] | Binder
1 | ~70 | – | – | – | – | – | 10D1 (antibody, V domains shown) VH: QVQLVESGGGVVQPGRSLRLSCAASGFTFSSYTMHWVRQAPGKGLEWVTFISYDGNNKYYADSVKGRFTISRDNSKNTLYLQMNSLRAEDTAIYYCARTGWLGPFDYWGQGTLVTVSS VL: not shown
2 | – | 1180 | 34 | 1540 | 1450 | 22 | hCTLA4.27A.C1 (antibody, V domains shown, Chimeric: mouse variable domains on human IgG1, kappa; also called hCTLA4.27A chimeric hIgG1) VH: QVQLQQPGAVLVRPGVSVKLSCKASGYSFTTYWMNWVKQRPGQGLEWIGMIHPSDSETSLNQAFKDKATLTIDKSSSTAYMQLSSPTSEDSAVYFCARMGRRNPYYFDYWGQGTTLTVSS VL: DIQMTQSPVSLSVSVGETVTITCRPSENLYTNLAWYQQKQGKSPQLLVYGATNLADGVPSRFSGSGSGTQYSLRINSLQSEDFGTYYCQHLWGTPFTFGSGTKLELK
3 | – | – | – | 3360 | – | 101 | hCTLA4.27H3L3 (antibody, human IgG4 S228P, kappa, V domains shown, Humanized, human IgG4 (S228P) kappa; H3 read as hCTLA4.27VH3, L3 as hCTLA4.27VL3) VH: EVQLVQSGAVVAKPGSSVKVSCKASGYSFTTYWMNWVRQAPGQGLEWMGMIHPSDSETSLNQAFKDRVTITADKSTSTAYMELSSLTSEDTAVYYCARMGRRNPYYFDYWGQGTTVTVSS VL: DIQMTQSPSSLSASVGDTVTITCRPSENLYTNLAWYQQKPGKAPKLLLYGATNLADGVPSRFSGSGSGTDYTLTISSLQSEDFATYYCQHLWGTPFTFGQGTKLEIKR
4 | – | – | – | 2520 | – | 47 | hCTLA4.27H4L2 (antibody, human IgG4 S228P, kappa, V domains shown, Humanized, human IgG4 (S228P) kappa; H4 read as hCTLA4.27VH4, L2 as hCTLA4.27VL2) VH: EVQLVQSGAEVKKPGASVKVSCKASGYSFTTYWMNWVRQAPGQGLEWMGMIHPSDSETSLNQAFKDRVTMTRDTSTSTVYMELSSLRSEDTAVYYCARMGRRNPYYFDYWGQGTLVTVSS VL: DIQMTQSPSSLSASVGDRVTITCRPSENLYTNLAWYQQKPGKAPKLLIYGATNLADGVPSRFSGSGSGTEFSLSISSLQPEDFATYYCQHLWGTPFTFGGGTKVEIKR
5 | – | – | – | 2720 | – | 45 | hCTLA4.27H2L5 (antibody, human IgG4 S228P, kappa, V domains shown, Humanized, human IgG4 (S228P) kappa; H2 read as hCTLA4.27VH2, L5 as hCTLA4.27VL5) VH: EVQLVQSGAVLVKPGASVKVSCKASGYSFTTYWMNWVRQRPGKGLEWIGMIHPSDSETSLNQAFKDKVTITADESTSTAYMQLSSLRSEDTAVYYCARMGRRNPYYFDYWGQGTTVTVSS VL: DIQMTQAPSSLSASVGDRVTITCRPSENLYTNLAWYQQKPGKAPKLLLYGATNLADGVPSRFSGSGSGTDYTLTISSLQAEDFATYYCQHLWGTPFTFGGGTKLEIKR
6 | – | – | – | 1800 | – | 27 | hCTLA4.27H6L2 (antibody, human IgG4 S228P, kappa, V domains shown, Humanized, human IgG4 (S228P) kappa; H6 read as hCTLA4.27VH6, L2 as hCTLA4.27VL2) VH: EVQLLESGPELVRPGSSVKISCKASGYSFTTYWMNWVKQRPGKGLEWIGMIHPSDSETSLNQAFKDKVKLTAATSASIAYLEFSSLRNEDSAVYYCARMGRRNPYYFDYWGQGTLVTVSS VL: DIQMTQSPSSLSASVGDRVTITCRPSENLYTNLAWYQQKPGKAPKLLIYGATNLADGVPSRFSGSGSGTEFSLSISSLQPEDFATYYCQHLWGTPFTFGGGTKVEIKR
7 | – | – | – | 2590 | – | 44 | hCTLA4.27H2L2 (antibody, human IgG4 S228P, kappa, V domains shown, Humanized, human IgG4 (S228P) kappa; H2 read as hCTLA4.27VH2, L2 as hCTLA4.27VL2) VH: EVQLVQSGAVLVKPGASVKVSCKASGYSFTTYWMNWVRQRPGKGLEWIGMIHPSDSETSLNQAFKDKVTITADESTSTAYMQLSSLRSEDTAVYYCARMGRRNPYYFDYWGQGTTVTVSS VL: DIQMTQSPSSLSASVGDRVTITCRPSENLYTNLAWYQQKPGKAPKLLIYGATNLADGVPSRFSGSGSGTEFSLSISSLQPEDFATYYCQHLWGTPFTFGGGTKVEIKR
8 | – | – | – | 3670 | – | 82 | hCTLA4.27H3L5 (antibody, human IgG4 S228P, kappa, V domains shown, Humanized, human IgG4 (S228P) kappa; H3 read as hCTLA4.27VH3, L5 as hCTLA4.27VL5) VH: EVQLVQSGAVVAKPGSSVKVSCKASGYSFTTYWMNWVRQAPGQGLEWMGMIHPSDSETSLNQAFKDRVTITADKSTSTAYMELSSLTSEDTAVYYCARMGRRNPYYFDYWGQGTTVTVSS VL: DIQMTQAPSSLSASVGDRVTITCRPSENLYTNLAWYQQKPGKAPKLLLYGATNLADGVPSRFSGSGSGTDYTLTISSLQAEDFATYYCQHLWGTPFTFGGGTKLEIKR
9 | – | – | – | 3260 | – | 51 | hCTLA4.27H4L3 (antibody, human IgG4 S228P, kappa, V domains shown, Humanized, human IgG4 (S228P) kappa; H4 read as hCTLA4.27VH4, L3 as hCTLA4.27VL3) VH: EVQLVQSGAEVKKPGASVKVSCKASGYSFTTYWMNWVRQAPGQGLEWMGMIHPSDSETSLNQAFKDRVTMTRDTSTSTVYMELSSLRSEDTAVYYCARMGRRNPYYFDYWGQGTLVTVSS VL: DIQMTQSPSSLSASVGDTVTITCRPSENLYTNLAWYQQKPGKAPKLLLYGATNLADGVPSRFSGSGSGTDYTLTISSLQSEDFATYYCQHLWGTPFTFGQGTKLEIKR
10 | – | – | – | 3080 | – | 61 | hCTLA4.27H4L5 (antibody, human IgG4 S228P, kappa, V domains shown, Humanized, human IgG4 (S228P) kappa; H4 read as hCTLA4.27VH4, L5 as hCTLA4.27VL5) VH: EVQLVQSGAEVKKPGASVKVSCKASGYSFTTYWMNWVRQAPGQGLEWMGMIHPSDSETSLNQAFKDRVTMTRDTSTSTVYMELSSLRSEDTAVYYCARMGRRNPYYFDYWGQGTLVTVSS VL: DIQMTQAPSSLSASVGDRVTITCRPSENLYTNLAWYQQKPGKAPKLLLYGATNLADGVPSRFSGSGSGTDYTLTISSLQAEDFATYYCQHLWGTPFTFGGGTKLEIKR
11 | – | – | – | 3330 | – | 70 | hCTLA4.27H4L1 (antibody, human IgG4 S228P, kappa, V domains shown, Humanized, human IgG4 (S228P) kappa; H4 read as hCTLA4.27VH4, L1 as hCTLA4.27VL1) VH: EVQLVQSGAEVKKPGASVKVSCKASGYSFTTYWMNWVRQAPGQGLEWMGMIHPSDSETSLNQAFKDRVTMTRDTSTSTVYMELSSLRSEDTAVYYCARMGRRNPYYFDYWGQGTLVTVSS VL: DIQMTQSPSSLSASVGDRVTITCRPSENLYTNLAWYQQKPGKAPKLLLYGATNLADGVPSRFSGSGSGTDYTLTISSLQPEDFATYYCQHLWGTPFTFGQGTKLEIKR
